This note sets out measurements from patent US20230340071A1 (published 2023).

Residue numbers refer to the chain shown, from its start. Names may count otherwise.

The target of one assay is T1, Biotinylated hIL2RB (UniProt P14784 27-240, biotinylated (site not stated)).
T1 chain: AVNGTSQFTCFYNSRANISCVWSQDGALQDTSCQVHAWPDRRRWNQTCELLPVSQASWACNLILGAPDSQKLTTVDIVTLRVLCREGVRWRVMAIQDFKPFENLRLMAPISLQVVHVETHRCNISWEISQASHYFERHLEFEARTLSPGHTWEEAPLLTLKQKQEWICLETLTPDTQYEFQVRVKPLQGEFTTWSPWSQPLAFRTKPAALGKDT
The assay is described as follows: BLI. For orientation: Biolayer interferometry detects binding as a change in optical thickness at a sensor tip.

For another assay, the target named is T2, Biotinylated hIL2RG (human, UniProt P31785 23-262, limits assumed, biotinylated (site not stated)).
T2 construct: also called human common gamma receptor (hIL2RG); hIL-2Rγc
T2 sequence: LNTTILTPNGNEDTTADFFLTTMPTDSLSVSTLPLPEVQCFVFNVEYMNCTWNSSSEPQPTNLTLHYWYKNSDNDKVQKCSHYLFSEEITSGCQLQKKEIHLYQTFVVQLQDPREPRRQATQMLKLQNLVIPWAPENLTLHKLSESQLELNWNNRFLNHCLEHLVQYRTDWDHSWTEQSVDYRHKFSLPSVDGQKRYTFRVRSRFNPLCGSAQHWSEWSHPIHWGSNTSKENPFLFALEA
Briefly: BLI (Octet RED96), biotinylated hIL2RG on streptavidin sensors, 200 nM protein + 200 nM hIL2RB. The method, then:
Biotinylated hIL2RG molecules were immobilized to Streptavidin sensors (SA, ForteBio) at 2 μg/mL in binding buffer (10 mM HEPES, pH 7.4, 150 mM NaCl, 3 mM EDTA, 0.05% surfactant P20, 0.5% non-fat dry milk). After baseline measurement in the binding buffer alone, the binding kinetics were monitored by dipping the biosensors in wells containing 200 nM of protein and 200 nM of hIL2RB for 300 sec. Data were collected in an Octet RED96 (ForteBio) and processed using the instrument's integrated software.

Assay [1] has as its target T3, human IL-2 receptor (IL-2Rβγc) on cells (human, UniProt P14784 27-551; P31785 23-369).
T3 sequence 1: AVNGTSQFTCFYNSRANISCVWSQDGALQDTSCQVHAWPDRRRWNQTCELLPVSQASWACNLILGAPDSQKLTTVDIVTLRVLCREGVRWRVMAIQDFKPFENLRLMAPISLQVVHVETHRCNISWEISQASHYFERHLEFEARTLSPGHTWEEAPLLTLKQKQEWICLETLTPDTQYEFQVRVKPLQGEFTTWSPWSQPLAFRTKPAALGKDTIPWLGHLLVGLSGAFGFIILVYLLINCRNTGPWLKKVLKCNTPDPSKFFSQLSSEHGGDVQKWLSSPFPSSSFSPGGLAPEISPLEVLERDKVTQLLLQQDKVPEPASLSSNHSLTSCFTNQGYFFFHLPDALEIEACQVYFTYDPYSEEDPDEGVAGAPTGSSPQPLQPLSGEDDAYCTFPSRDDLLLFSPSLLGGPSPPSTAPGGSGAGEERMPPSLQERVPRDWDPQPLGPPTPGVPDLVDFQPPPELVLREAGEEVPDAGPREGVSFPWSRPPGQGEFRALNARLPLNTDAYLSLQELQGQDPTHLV
T3 sequence 2: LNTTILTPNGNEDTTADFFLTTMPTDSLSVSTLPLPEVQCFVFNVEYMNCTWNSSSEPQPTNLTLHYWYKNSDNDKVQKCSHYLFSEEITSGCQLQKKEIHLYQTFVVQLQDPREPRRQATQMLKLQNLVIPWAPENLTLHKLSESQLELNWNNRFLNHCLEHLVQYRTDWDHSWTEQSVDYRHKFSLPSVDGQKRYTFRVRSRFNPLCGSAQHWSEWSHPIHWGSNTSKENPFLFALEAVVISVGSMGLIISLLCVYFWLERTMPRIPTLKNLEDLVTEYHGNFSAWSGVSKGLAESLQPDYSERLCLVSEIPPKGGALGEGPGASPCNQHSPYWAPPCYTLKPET
Briefly: cell-based or functional assay.

In assay [2] the target is T4, hIL-2RBG (biotinylated hIL2RG on the sensor with hIL2RB in solution) (UniProt P14784 27-240; P31785 23-262, biotinylated (site not stated)).
T4 chain 1: T1 chain
T4 chain 2: T2 sequence
The assay is described as follows: BLI competition, inhibition of hIL-2 binding.

Assay [3] deals with T5, hIL2RB-fc chimera (human, UniProt P14784 27-240).
T5 construct: also called hIL2 receptor beta; hIL-2Rβ; not shown: Fc part of the bought chimera (captured on anti-human IgG Fc biosensors)
T5 sequence: T1 chain
Briefly: BLI (Octet RED96e), hIL2RB-fc (AcroBiosystems) on anti-human IgG Fc sensors. The method, then: (§1) For this purpose, sensors were soaked in samples containing 20 nM of hIL2RB-fc chimera (AcroBiosystems) for 300 sec. […] Finally, sensors were removed from the protein samples and dipped in buffer solutions to promote and measure dissociation (1500 sec). The buffer used to prepare all the samples and soak the sensors was HBS-EP+from GE Healthcare, which contains 10 mM HEPES, 150 mM NaCl, 3 mM EDTA and 0.05% v/v surfactant P20, pH 7.4. Data were acquired at 30° C. using an Octet RED96e system (ForteBio) and processed using the instrument's integrated software. Kinetics were fitted to a 1:1 binding model after subtracting a buffer signal baseline and the Kd values were calculated.

In assay [4] the target is T3, human IL-2 receptor (IL-2Rβγc) on cells. Briefly: cell-based or functional assay. This is another data set of the same source.
The target in assay [5] is T6, hIL2RG-fc chimera (human, UniProt P31785 23-262).
T6 construct: also called hIL2G; hIL2 receptor gamma; not shown: Fc part of the bought chimera (captured on anti-human IgG Fc biosensors)
T6 sequence: T2 sequence
The assay is described as follows: BLI (Octet RED96e), hIL2RG-fc (AcroBiosystems) on anti-human IgG Fc sensors. The method, then: as §1, with “hIL2RG-fc” for “hIL2RB-fc”, “HBS-EP+ from” for “HBS-EP+from”

The target of a further assay is T7, mouse IL-2 beta receptor (mouse, UniProt P16297 27-240).
T7 construct: also called mIL2RB; beta part of mIL2RBG
T7 sequence (looked up): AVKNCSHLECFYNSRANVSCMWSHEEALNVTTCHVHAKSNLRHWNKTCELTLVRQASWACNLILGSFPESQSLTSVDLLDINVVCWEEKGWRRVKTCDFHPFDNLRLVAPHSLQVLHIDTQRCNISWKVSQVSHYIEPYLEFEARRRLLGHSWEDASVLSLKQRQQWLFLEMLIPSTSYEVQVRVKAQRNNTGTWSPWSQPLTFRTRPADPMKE
Briefly: BLI competition: mIL2RG on sensor, dilutions of P3 + 20 nM Neo-2/15; competitor Neo-2/15; read-out binding to mIL2RBG. The method, then: (§2) All samples were prepared using HBS-EP+buffer from GE Healthcare, which contains 10 mM HEPES, 150 mM NaCl, 3 mM EDTA and 0.05% v/v surfactant P20, pH 7.4. Data were acquired at 30° C. using an Octet RED96e system (ForteBio) and processed using the instrument's integrated software. IC50 values were estimated from response vs antagonist concentration plots.

Assay [6] has as its target T5, hIL2RB-fc chimera. The assay is described as follows: BLI competition: hIL2RG-fc on sensor, dilutions of P3 + 20 nM Neo-2/15 + 50 nM hIL2RB-fc; competitor Neo-2/15; read-out binding to hIL2RBG. The method, then: as §2
For assay [7], the target named is T5, hIL2RB-fc chimera. The assay is described as follows: BLI (Octet RED96e), hIL2RB-fc (Symansis) on anti-human IgG Fc sensors. The method, then:
as §1, with “(Symansis)” for “(AcroBiosystems)”

Assay [8] deals with T3, human IL-2 receptor (IL-2Rβγc) on cells. Briefly: cell-based or functional assay. This is another data set of the same source.
Assay [9] concerns the target T6, hIL2RG-fc chimera. The assay is described as follows: BLI (Octet RED96e), hIL2RG-fc on anti-human IgG Fc sensors, 200 nM P3 + 200 nM hIL2RB-fc. The method, then:
(§3) All samples were prepared using HBS-EP+ buffer from GE Healthcare, which contains 10 mM HEPES, 150 mM NaCl, 3 mM EDTA and 0.05% v/v surfactant P20, pH 7.4. Data were acquired at 30° C. using an Octet RED96e system (ForteBio) and processed using the instrument's integrated software.

Assay [10] addresses T6, hIL2RG-fc chimera. The assay is described as follows: BLI (Octet RED96e), hIL2RG-fc on anti-human IgG Fc sensors. The method, then:
as §1, with “hIL2RG-fc” for “hIL2RB-fc”, “HBS-EP+ from” for “HBS-EP+from”

Assay [11] deals with T6, hIL2RG-fc chimera. The assay is described as follows: BLI (Octet RED96e), hIL2RG-fc (Symansis) on anti-human IgG Fc sensors, protein + 200 nM hIL2RB-fc. The method, then:
as §3

B1: Protein 6 (P6) (designed binder)
chain: PKKKIQLFAEHALYDAEMILKIVKTNSPPAEEELEDYAFNFELILEEIARLFESGDQKDEAEKAKRMKEWMKRIKTTASEDEQEEMANKIRKILEEWIRS
notes: P5 with 'Y8F' (printed; P5 has H at 8) and K33E; N-terminal 6xHis tag and thrombin site in the expression vector
Take B1: the Kd – broadly, the concentration at which binding is half-saturated – in the assay with Biotinylated hIL2RB is below 1 nM. In the assay with Biotinylated hIL2RG, the binding result is “no binding (tested: 200 nM)”. For the same molecule, in assay [1], the “Signaling Inhibition IC50 (1 nM hIL-2, pSTAT5, CD4+ T cells)” value is 1.84 nM; the “Signaling Inhibition IC50 (1 nM hIL-2, pSTAT5, CD8+ T cells)” value amounted to 0.41 nM; the “Signaling Inhibition IC50 (1 nM hIL-2, pSTAT5, all T cells)” value worked out at 0.83 nM. Besides, the IC50 (usually the concentration that inhibits the measured activity by half) in assay [2] turned out to be 83 nM.

B2: Protein 1 (P1) (designed binder)
chain: B1 chain with F8H, L13R, K21N, E33K, K89A, R91I, K92T, E95T, E96S
notes: N-terminal 6xHis tag and thrombin site in the expression vector
As to B2, the Kd with hIL2RB-fc chimera [3] came to 17 nM; in the assay with hIL2RG-fc chimera [5], 1190 nM. Also, the “Induced Signaling EC50 (pSTAT5, YT-1 CTLL-2 cells)” value in assay [4] is 557 nM.

B3: Protein 3 (P3) (designed binder)
chain: B1 chain with F8Y, L13R, K21N, K89A, R91I, K92T, E95T, E96S
notes: P1 with H8Y and K33E; N-terminal 6xHis tag and thrombin site in the expression vector
With B3, the IC50 with mouse IL-2 beta receptor is above 200 nM. In the assay with hIL2RB-fc chimera [6], the IC50 was 12.5 nM. Further, in the assay with hIL2RB-fc chimera [7], the Kd stood at 0.2 nM. Further, in assay [8], the “Binding Inhibition IC50 (inhibition of hIL-2 pSTAT5 signaling, human pan T cells, 0.1 nM hIL2)” value was found to be 1.4 nM; the “Binding Inhibition IC50 (inhibition of hIL-2 pSTAT5 signaling, human pan T cells, 1 nM hIL2)” value was 11.7 nM; the “Binding Inhibition IC50 (inhibition of hIL-2 pSTAT5 signaling, human pan T cells, 10 nM hIL2)” value was determined as 863 nM. Moreover, the binding result with hIL2RG-fc chimera [9] is listed as “no binding (tested: 200 nM)”.

B4: Protein 2 (P2) (designed binder)
chain: B1 chain with F8H, E33K, K89R
notes: as for B2
In turn, B4 came in with a Kd in the assay with hIL2RB-fc chimera [3] of 21 nM. Moreover, the binding result with hIL2RG-fc chimera [10] is “no binding (tested: 5000 nM (highest concentration tested))”. Also, the “Induced Signaling EC50 (pSTAT5, YT-1 CTLL-2 cells)” value in assay [4] came out at 426 nM.

B5: Protein 5 (P5) (designed binder)
chain: B1 chain with F8H, E33K
notes: as for B2
In the assay with Biotinylated hIL2RB, B5 showed a Kd of 12 nM. Further, the binding result in the assay with Biotinylated hIL2RG is reported as “no binding (tested: 200 nM)”. The “Signaling Inhibition IC50 (1 nM hIL-2, pSTAT5, CD8+ T cells)” value in assay [1] came out at 77.7 nM. Besides, the IC50 in assay [2] was 100 nM.

B6: Neo-2/15 (designed binder)
chain: B1 chain with F8H, E17L, K21N, E33K, K89A, R91I, K92T, E95Q, E96S, R99F
notes: Proteins were expressed in E. coli with an N-terminal 6xHis tag and thrombin site; also called Neoleukin-2/15
On to B6, for which the Kd in the assay with hIL2RG-fc chimera [11] and with hIL2RG-fc chimera [5] was 277 nM each time.
